The values that follow come from article PMC4803204, “A Novel Glutamyl (Aspartyl)-Specific Aminopeptidase A from Lactobacillus delbrueckii with Promising Properties for Application” (PLoS ONE, 2016).

Data set [1] has as its target Glutamyl (aspartyl)-specific aminopeptidase A (PepA) from Lactococcus lactis ssp. lactis DSM 20481 (Lactococcus lactis ssp. lactis DSM 20481) (UniProt Q48677). Put plainly: SEC; Superdex 200 10/300 GL, 30 uL at 1 mg/mL, 0.75 mL/min, 10 mM Na/K-phosphate pH 8.0 with 150 mM NaCl; native mass against calibration proteins, divided by the monomer's mass.
The target in data set [2] is T1, Lc-PepA (Lactococcus lactis, UniProt Q9CIH3).
T1 construct: full length (355 aa, 1068 bp gene), C-terminal His6-tag kept, pET20b(+), E. coli BL21(DE3), Ni-NTA purified
T1 sequence (Q9CIH3 1-355): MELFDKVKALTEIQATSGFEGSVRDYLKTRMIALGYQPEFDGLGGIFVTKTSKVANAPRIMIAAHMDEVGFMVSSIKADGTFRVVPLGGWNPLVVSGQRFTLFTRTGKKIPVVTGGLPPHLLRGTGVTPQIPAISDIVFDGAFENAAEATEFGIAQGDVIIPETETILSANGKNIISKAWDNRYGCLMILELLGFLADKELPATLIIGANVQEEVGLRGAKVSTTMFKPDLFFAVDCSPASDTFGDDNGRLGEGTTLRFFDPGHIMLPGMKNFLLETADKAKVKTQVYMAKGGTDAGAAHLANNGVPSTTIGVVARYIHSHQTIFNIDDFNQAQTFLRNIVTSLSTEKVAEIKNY
Put plainly: product inhibition, p-nitroaniline release at […] nm. Type of data set: biochemical.

For data set [3], the target named is Glutamyl (aspartyl)-specific aminopeptidase A (PepA) from Lactobacillus delbrueckii ssp. lactis DSM 20072 (Lactobacillus delbrueckii ssp. lactis DSM 20072). Put plainly: SEC; Superdex 200 10/300 GL, 30 uL at 1 mg/mL, 0.75 mL/min, 10 mM Na/K-phosphate pH 6.0 with 150 mM NaCl; native mass against calibration proteins, divided by the monomer's mass. (Size exclusion chromatography separates by hydrodynamic size, large species first.)

Data set [4] addresses T1, Lc-PepA. The data set is described as follows: p-nitroaniline release at […] nm, Michaelis-Menten nonlinear fit. Type of data set: biochemical. The following applies: substrate inhibition constant, apparent; 50 mM Na/K-phosphate pH 8.0, 65 °C, 0.3125 mM CoCl2.
For data set [5], the target named is T1, Lc-PepA. The description is as above. Type of data set: biochemical. The following applies: substrate inhibition constant, apparent; 50 mM Na/K-phosphate pH 8.0, 65 °C, 0.3125 mM CoCl2. The source holds these as a separate data set.
In a further data set the target is T2, Lb-PepA (Lactobacillus delbrueckii, UniProt F0HXE4).
T2 construct: full length (361 aa, 1086 bp gene), C-terminal His6-tag kept, pET20b(+), E. coli BL21(DE3), Ni-NTA purified
T2 sequence (F0HXE4 1-361): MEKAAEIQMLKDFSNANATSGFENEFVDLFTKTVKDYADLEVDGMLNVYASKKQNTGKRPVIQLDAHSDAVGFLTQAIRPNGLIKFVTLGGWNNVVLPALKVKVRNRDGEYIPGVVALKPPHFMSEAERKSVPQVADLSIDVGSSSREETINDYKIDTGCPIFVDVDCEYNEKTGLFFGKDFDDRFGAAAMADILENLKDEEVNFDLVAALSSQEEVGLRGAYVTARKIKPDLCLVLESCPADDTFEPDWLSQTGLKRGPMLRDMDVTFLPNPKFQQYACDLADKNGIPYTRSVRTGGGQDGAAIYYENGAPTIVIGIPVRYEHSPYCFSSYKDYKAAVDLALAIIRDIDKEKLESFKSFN
The data set is described as above. The following applies: substrate inhibition constant, apparent; 50 mM Na/K-phosphate pH 6.0, 60 °C, 0.625 mM CoCl2. Type of data set: biochemical.

Substrate in data set [6]: N[C@@H](CC(=O)O)C(=O)Nc1ccc([N+](=O)[O-])cc1
The data set is described as follows: purified protein. Type of data set: biochemical, Lactobacillus delbrueckii. The following applies: apparent, 50 mM Na/K-phosphate pH 6.0, 60 °C, 0.625 mM CoCl2, about 5% DMSO, fit with substrate inhibition.

Substrate in data set [7]: N[C@@H](CCC(=O)O)C(=O)Nc1ccc([N+](=O)[O-])cc1
The data set is described as follows: purified protein. The following applies: apparent, 50 mM Na/K-phosphate pH 6.0, 60 °C, 0.625 mM CoCl2, about 5% DMSO, substrate tested only up to 7.3 mM (solubility). Type of data set: biochemical, Lactobacillus delbrueckii.

Substrate in data set [8]: N[C@@H](CC(=O)O)C(=O)Nc1ccc([N+](=O)[O-])cc1
The data set is described as follows: purified protein. The following applies: apparent, 50 mM Na/K-phosphate pH 8.0, 65 °C, 0.3125 mM CoCl2, about 5% DMSO, fit with substrate inhibition. Type of data set: biochemical, Lactococcus lactis.

Substrate in data set [9]: N[C@@H](CCC(=O)O)C(=O)Nc1ccc([N+](=O)[O-])cc1
Put plainly: purified protein. Type of data set: biochemical, Lactococcus lactis. The following applies: apparent, 50 mM Na/K-phosphate pH 8.0, 65 °C, 0.3125 mM CoCl2, about 5% DMSO, fit with substrate inhibition.

“Glutamyl (aspartyl)-specific aminopeptidase A (PepA) from Lactococcus lactis ssp. lactis DSM 20481 (from UniProt Q48677 1-355) (enzyme)”: the stoichiometry N (as a rule, a count of units in the complex or per binding partner) in data set [1] is 12.

Molecule `N[C@@H](CC(=O)O)C(=O)O` [L-Asp] registered an activity at 10000 µM at Lc-PepA [2] of 78.2%.

For the molecule `N[C@@H](CCC(=O)O)C(=O)O` [L-Glu], the activity at 10000 µM at Lc-PepA [2] came out at 82.3%.

Molecule “Glutamyl (aspartyl)-specific aminopeptidase A (PepA) from Lactobacillus delbrueckii ssp. lactis DSM 20072 (enzyme)” displayed a stoichiometry N in data set [3] of 12.

Take `N[C@@H](CCC(=O)O)C(=O)Nc1ccc([N+](=O)[O-])cc1` [H-Glu-pNA]: at Lc-PepA [4], the “H-Glu-pNA / KIS [mM]” value was determined as 3.61 mM.

With `N[C@@H](CC(=O)O)C(=O)Nc1ccc([N+](=O)[O-])cc1` [H-Asp-pNA], the “H-Asp-pNA / KIS [mM]” value was 41.9 mM on Lc-PepA [5] and 6.66 mM on Lb-PepA.

B1: Lb-PepA (Lactobacillus delbrueckii subsp. lactis DSM 20072) (protein)
chain: MEKAAEIQMLKDFSNANATSGFENEFVDLFTKTVKDYADLEVDGMLNVYASKKQNTGKRPVIQLDAHSDAVGFLTQAIRPNGLIKFVTLGGWNNVVLPALKVKVRNRDGEYIPGVVALKPPHFMSEAERKSVPQVADLSIDVGSSSREETINDYKIDTGCPIFVDVDCEYNEKTGLFFGKDFDDRFGAAAMADILENLKDEEVNFDLVAALSSQEEVGLRGAYVTARKIKPDLCLVLESCPADDTFEPDWLSQTGLKRGPMLRDMDVTFLPNPKFQQYACDLADKNGIPYTRSVRTGGGQDGAAIYYENGAPTIVIGIPVRYEHSPYCFSSYKDYKAAVDLALAIIRDIDKEKLESFKSFN
notes: full length (361 aa, 1086 bp gene), C-terminal His6-tag kept, pET20b(+), E. coli BL21(DE3), Ni-NTA purified
For B1, the Km – broadly, the concentration of substrate that gives half-maximal velocity – is 1210 µM in the data set “purified protein [6]” and 25200 µM in “purified protein [7]”.

B2: Lc-PepA (Lactococcus lactis subsp. lactis Il1403) (protein)
chain: MELFDKVKALTEIQATSGFEGSVRDYLKTRMIALGYQPEFDGLGGIFVTKTSKVANAPRIMIAAHMDEVGFMVSSIKADGTFRVVPLGGWNPLVVSGQRFTLFTRTGKKIPVVTGGLPPHLLRGTGVTPQIPAISDIVFDGAFENAAEATEFGIAQGDVIIPETETILSANGKNIISKAWDNRYGCLMILELLGFLADKELPATLIIGANVQEEVGLRGAKVSTTMFKPDLFFAVDCSPASDTFGDDNGRLGEGTTLRFFDPGHIMLPGMKNFLLETADKAKVKTQVYMAKGGTDAGAAHLANNGVPSTTIGVVARYIHSHQTIFNIDDFNQAQTFLRNIVTSLSTEKVAEIKNY
notes: full length (355 aa, 1068 bp gene), C-terminal His6-tag kept, pET20b(+), E. coli BL21(DE3), Ni-NTA purified
Turning to B2, the Km in “purified protein [8]” was determined as 340 µM; in the data set “purified protein [9]”, 190 µM.
